The target of the assay is T1, tandem OR repeats of mouse PrP (Mus musculus).
T1 chain: PHGGSWGQPHGGSWGQ
The assay is described as follows: crystal structure.

B1: Fab fragment of the monoclonal POM2 IgG (Fab, V domains shown)
VH: VKLQESGGEVVRPGTSVKVSCKASGYAFTNYLIEWVKQRPGQGLEWIGVINPGSGDTNYNEKFKGKATLTADKSSSTAYMQLNSLTSDDSAVYFCARSGAAAPTYYAMDYWGQGVSVTVSS
VL: DIVMTQSHKFMSTSVGDRVSITCKASQVGTALAWYQQKPGQSPKLLIYWASTRHTGVPDRFTGSGSGTDFTLTISNVQSEDLSDYFCQQYSSYPTFGGGTKLEIK
For B1, the binding result is listed as “binds”.

These data come from PMC4031664 (Prion, 2013).
